The nature of series [1]: Stability (aggregate formation by SEC) of unpurified and purified hepcidin in 0.9% saline at 40° C. Format: physicochemical. Particulars: for Stability: aggregate formation of the batch; for aggregation at low pH: pH 2.5, 0.9% saline, over 10 days; for aggregate by SEC: pH 5.6, 0.9% saline. The protocol: Aggregation can be measured by several different methods. In some embodiments, aggregation is measured by size exclusion high-performance liquid chromatography (SEC-HPLC). This method allows for the separation and quantification of hepcidin monomer from any aggregates including dimer, trimer and multimers. In other preferred embodiments, aggregation is measured by an isocratic method performed on an HPLC system comprised of a temperature controlled auto-sampler, a binary or quaternary pump, and an ultraviolet detector. For example, in some such embodiments, the mobile phase consists of 0.05% TFA in 50% acetonitrile and water and human hepcidin-25 (SEQ ID NO: 1) is dissolved in of 0.05% TFA to 1 mg/mL concentration. Five microliters of the solution are injected onto a Zenix-C SEC-80 column of 7.8×300 mm in dimension, 80 Å pore size and 3 μm particle size (Sepax Technologies, Newark, Del. 19711). A flow rate of 1 mL/min is used to elute the analyte from the column and deliver to the UV detector set at 214 nm. The entire run time is 13 min. Empower™ chromatography software or equivalent software is used to integrate each chromatography peak and calculate % peak area at each respective retention time.
(§1) In view of the role played by intermolecular disulfide bond formation in aggregate formation, and the contribution of thiol groups to that end, multiple sources of hepcidin-25 were analyzed for thiol using a thiol content assay and evaluated for stability. Commercially available hepcidin was used in these Examples, which while “purified” to contain only hepcidin, contained thiols and aggregates, and thus may be referred to as “unpurified” to distinguish it from the compositions of the invention. […] For the purpose of this experiment the thiol impurity was removed as follows: Thiols were quenched using 1 molar equivalents of […] (NEM). The solution was then purified by tangential flow filtration (TFF) using Millipore Pellicon 2 10 kDa cassettes for aggregate removal and Pall T-Series 1 kDa for ultra-filtration-diafiltration. The starting material was diluted to less than or equal to 0.1 mg/mL prior to processing through the 10 kDa system. The diluent consisted of 15% Acetonitrile/0.05% Trifluoracetic acid (TFA).
The initial unpurified material and the resulting purified material were formulated in 0.9% saline at either pH 2.5 or pH 5.6 and assessed for stability at 40° C. Samples were taken over 10 days and evaluated by SEC.

A short description of series [2]: Thiol content assay of hepcidin-25 batches. It counts as physicochemical. Particulars: for Average mole thiol/[mole hepcidin]: batches of hepcidin-25 before and after purification, lower quantifiable limit 0.01; for thiol content of sample of FIG. 2: sample used in pH 2.5 / pH 5.6 stability study.
Excerpt: In some embodiments, the composition comprises purified hepcidin and is substantially free of thiol (e.g., unreacted, free sulfhydryl-containing cysteines). Thiols can react with the disulfide bridges of hepcidin resulting in disulfide scrambling and potential polymerization of multiple hepcidin molecules to form aggregated hepcidin. Such thiols can come from multiple sources, some of which include thiols left over from synthesis of the hepcidin, incomplete folding of hepcidin and breakage of disulfide bridges within folded hepcidin, improperly folded hepcidin and/or aggregated hepcidin. Thiols may be measured by several methods, which may include a thiol quantification assay kit such as that from Molecular Probes: Thiol and Sulfide Quantification Kit (T-6060). Such a kit uses cysteine as a standard so that thiols are reported as cysteine equivalents. In some such embodiments the thiol content is less than 0.20 mole thiol/mole hepcidin. In some preferred embodiments, the thiol content is less than 0.1 mole thiol/mole hepcidin. In more preferred embodiments, the thiol content is less than 0.05 mole thiol/mole hepcidin. In further preferred embodiments, the thiol content is less than 0.015 mole thiol/mole hepcidin. In the most preferred embodiments, the thiol content is less than 0.01 mole thiol/mole hepcidin.
as §1

Series [3] can be described thus: Effect of salt form on aggregate formation. Format: physicochemical. The conditions noted are these: for native pH of solution: when preparing solutions of hepcidin, before pH adjustment; for aggregation when maleic acid is present: pH 4.2, 1 mg/mL maleic acid, continued aggregation then slowed. The protocol: The trifluoroacetate, chloride and acetate salts of hepcidin were prepared and all three salt forms were formulated in 0.9% saline at pH 4.2. The hepcidin concentration was 20 mg/mL with a maleic acid concentration of either 0 mg/mL or 1 mg/mL. Samples were filtered using a 0.2 μm syringe filter and aliquoted into glass screw cap amber vials. The samples were assessed for stability at 5° C. and 25° C. Over the course of 47 days the samples were evaluated by visual inspection, pH and SEC.

Series [4] can be described thus: Initial formulation stability (oxidation) by RP-HPLC. It counts as physicochemical. The protocol: […] Samples were analyzed by reversed-phase high-performance liquid chromatography (RP-HPLC). […] Samples were evaluated over 4.5 months and analyzed by RP-HPLC. Under all conditions, the rate of oxidation observed was slow.
The nature of series [5]: Effect of pH 4.2 vs pH 4.8 on aggregate formation. The conditions noted are these: 9% starting aggregate, thiol removed, 0.9% sodium chloride, 5° C. and 25° C., about 50 days. Format: physicochemical. On the procedure: Hepcidin-25, with 9% starting aggregate and purified to remove thiol, was dissolved in 0.9% sodium chloride and adjusted to either pH 4.2 or pH 4.8. Samples were filtered using a 0.2 μm syringe filter and aliquoted into glass screw cap amber vials. Samples were assessed for stability at both 5° C. and 25° C. Samples were taken over about 50 days and evaluated by visual inspection, pH and SEC.

A short description of series [6]: Mechanism of aggregate formation: stability studies and DTT reduction, SEC. It counts as physicochemical. From the text: Hepcidin contains 8 cysteines, forming 4 disulfide bridges, each with the potential to become unstable under certain conditions. […] Significant work was completed to address this degradation pathway.
Briefly, the effect of potential intermolecular disulfide bonding on aggregation was studied by adding a reducing agent to aggregated material to break all disulfide bonds. Hepcidin-25 with an aggregate content of 35% as measured by SEC was used for this study. An aliquot of this material was treated with 20 mM Dithiothreitol (DTT) and samples were evaluated by SEC.

Series [7] deals with serum iron. Particulars: cited from earlier work.

Where “and” joins values, the source holds several entries; their conditions need not be identical. Identical values can stand only once.

Regarding “Vendor 1, Lot 1 purified: hepcidin-25 lot with thiols quenched with NEM and purified by tangential flow filtration”, the Stability entry in series [1] is on record as “Stable, very slow”. Also, the “aggregation at low pH” value in series [1] (40° C.) was “no aggregation”. Besides, the “aggregate by SEC” value in series [1] (after 10 days at 40° C.) is given as “about 38%”. Besides, in series [2], the “Average mole thiol/[mole hepcidin]” value is <0.01 mole thiol/mole hepcidin and the “thiol content of sample of FIG. 2” value is listed as “no detectable thiol”.

Turning to “Vendor 1, Lot 1: commercially available hepcidin-25 batch containing thiols and aggregates, referred to as unpurified”, the Stability result in series [1] is recorded as “Unstable, rapid”. For the same substance, the “aggregation at low pH” value in series [1] (40° C.) was “aggregates more slowly”. Further, the “aggregate by SEC” value in series [1] (40° C., after 24 hours) is reported as > 95%. Besides, the “aggregate by SEC” value in series [1] (within time it took to test the material by SEC) is 38%. Further, in series [2], the “Average mole thiol/[mole hepcidin]” value came out at 0.17 mole thiol/mole hepcidin and the “thiol content of sample of FIG. 2” value came to 1.7 mole thiol/mole hepcidin.

For “Vendor 1, Lot 2: commercially available hepcidin-25 batch, unpurified”, the Stability entry in series [1] is reported as “Unstable, rapid”. Further, the “Average mole thiol/[mole hepcidin]” value in series [2] was >0.2 mole thiol/mole hepcidin.

On to “Vendor 2, Lot 1: commercially available hepcidin-25 batch, unpurified”, for which the Stability result in series [1] is “Unstable, slower”. Moreover, in series [2], the “Average mole thiol/[mole hepcidin]” value came to 0.03 mole thiol/mole hepcidin.

For “Vendor 2, Lot 2: commercially available hepcidin-25 batch, unpurified; label printed on two lines of Table 2”, the Stability entry in series [1] was “Unstable, slower”. Moreover, the “Average mole thiol/[mole hepcidin]” value in series [2] was 0.03 mole thiol/mole hepcidin and 0.02 mole thiol/mole hepcidin.

Regarding “Vendor 3, Lot 1: commercially available hepcidin-25 batch, unpurified”, the Stability result in series [1] was “Unstable, slower”. In addition, the “Average mole thiol/[mole hepcidin]” value in series [2] is reported as 0.03 mole thiol/mole hepcidin.

For hepcidin acetate [acetate salt form], the “relative stability of salt forms” value in series [3] (20 mg/mL, 0.9% saline, pH 4.2, 0 or 1 mg/mL maleic acid, 5° C. and 25° C., 47 days) is “most stable of the three salt forms”. Besides, the “native pH of solution” value in series [3] is “about 5”.

In the case of hepcidin chloride [HCl salt], in series [3] (20 mg/mL), the “aggregation when maleic acid is present” value is given as “initial increase in aggregation”. For the same substance, the “native pH of solution” value in series [3] was “about 2.5”.

hepcidin trifluoroacetate [TFA]: in series [3] (20 mg/mL), the “aggregation when maleic acid is present” value is “initial increase in aggregation”.

As to hepcidin-25, the rate of oxidation result in series [4] (40 mg/mL in saline with or without methionine, 37° C. and 45° C., 4.5 months, all conditions) is recorded as “slow”. Moreover, the “effect of methionine excipient on oxidation” value in series [4] (40 mg/mL in saline, methionine ten-fold molar excess, 37° C. and 45° C.) was “reduced the amount of oxidation even further”. For the same substance, the “primary degradation products observed” value in series [4] (50, 100 and 150 mg/mL, 5° C. over 4.5 months, RP-HPLC) is given as “mono or di-oxidation of the methionine at position 21”. In addition, in series [5], the “effect of pH on stability (aggregate formation)” value is reported as “pH 4.2 being more stable than pH 4.8”. Also, the “main mode of degradation” value in series [6] (accelerated (40° C.) and real time (5° C.) stability studies) was “aggregation”. In series [6] (material with 35% aggregate treated with 20 mM DTT), the “aggregation after reduction of disulfide bonds” value is “aggregation is reversed”. Further, the safety profile result in series [7] (nonclinical and clinical studies) is given as “favorable safety profile”. Besides, in series [7] (single subcutaneous injection), the “duration of iron lowering effects” value is “up to 1 week”.

The record behind these values is US20190315821A1, “COMPOSITIONS COMPRISING HEPCIDIN AND METHODS OF USE THEREOF” (La Jolla Pharmaceutical Company, priority 2018, published 2019).
